B1: recombinant wt Irga6 (bacterially expressed, from pGEX-4T-2-Irga6) [mouse] / itself (parent)
chain: MGQLFSSPKSDENNDLPSSFTGYFKKFNTGRKIISQEILNLIELRMRKGNIQLTNSAISDALKEIDSSVLNVAVTGETGSGKSSFINTLRGIGNEEEGAAKTGVVEVTMERHPYKHPNIPNVVFWDLPGIGSTNFPPNTYLEKMKFYEYDFFIIISATRFKKNDIDIAKAISMMKKEFYFVRTKVDSDITNEADGKPQTFDKEKVLQDIRLNCVNTFRENGIAEPPIFLLSNKNVCHYDFPVLMDKLISDLPIYKRHNFMVSLPNITDSVIEKKRQFLKQRIWLEGFAADLVNIIPSLTFLLDSDLETLKKSMKFYRTVFGVDETSLQRLARDWEIEVDQVEAMIKSPAVFKPTDEETIQERLSRYIQEFCLANGYLLPKNSFLKEIFYLKYYFLDMVTEDAKTLLKEICLRN

Drawing on article PMC3006384, “Phosphorylation of Mouse Immunity-Related GTPase (IRG) Resistance Proteins Is an Evasion Strategy for Virulent Toxoplasma gondii” (PLoS Biology, 2010), this text covers response for one variant.

This assay covers variants of B1. Put plainly: light scattering (GTP-dependent oligomerisation). The settings on record: with itself, value read at the last time point, 60 min, parent: 0.61, read off a plot.
As for MGQLFSSPKSDENNDLPSSFTGYFKKFNTGRKIISQEILNLIELRMRKGNIQLTNSAISDALKEIDSSVLNVAVTGETGSGKSSFINTLRGIGNEEEGAAKTGVVEVDMERHPYKHPNIPNVVFWDLPGIGSTNFPPNTYLEKMKFYEYDFFIIISATRFKKNDIDIAKAISMMKKEFYFVRTKVDSDITNEADGKPQTFDKEKVLQDIRLNCVNTFRENGIAEPPIFLLSNKNVCHYDFPVLMDKLISDLPIYKRHNFMVSLPNITDSVIEKKRQFLKQRIWLEGFAADLVNIIPSLTFLLDSDLETLKKSMKFYRTVFGVDETSLQRLARDWEIEVDQVEAMIKSPAVFKPTDEETIQERLSRYIQEFCLANGYLLPKNSFLKEIFYLKYYFLDMVTEDAKTLLKEICLRN [chain 1 T108D], the response stood at 0.22 a.u.
